In article PMC11362210, “N-carboxyacyl and N-α-aminoacyl derivatives of aminoaldehydes as shared substrates of plant aldehyde dehydrogenases 10 and 7” (Amino Acids, 2024):

Key:
Assay in all cases: purified protein
purified protein [1] = substrate: N[C@@H](Cc1ccccc1)C(=O)NCCCC=O; assay type: biochemical, Lathyrus oleraceus
purified protein [2] = substrate: O=CCCCNC(=O)CCC(=O)O; assay type: biochemical, Lathyrus oleraceus; conditions: 1 mM NAD+, 0.15 M Tris-HCl, pH 9.0
purified protein [3] = substrate: N[C@@H](Cc1ccc(O)cc1)C(=O)NCCCC=O; assay type: biochemical, Lathyrus oleraceus; conditions: 1 mM NAD+, 0.15 M Tris-HCl, pH 9.0
purified protein [4] = substrate: O=CCCNC(=O)CCC(=O)O; assay type: biochemical, Lathyrus oleraceus; conditions: 1 mM NAD+, 0.15 M Tris-HCl, pH 9.0
purified protein [5] = substrate: NCCC=O; assay type: biochemical, Lathyrus oleraceus; conditions: 1 mM NAD+, 0.15 M Tris-HCl, pH 9.0
purified protein [6] = substrate: NCCCC=O; assay type: biochemical, Lathyrus oleraceus; conditions: 1 mM NAD+, 0.15 M Tris-HCl, pH 9.0
purified protein [7] = substrate: O=CCCCNC(=O)CCCC(=O)O; assay type: biochemical, Lathyrus oleraceus; conditions: 1 mM NAD+, 0.15 M Tris-HCl, pH 9.0
purified protein [8] = substrate: O=CCCNC(=O)CCCC(=O)O; assay type: biochemical, Lathyrus oleraceus; conditions: 1 mM NAD+, 0.15 M Tris-HCl, pH 9.0
purified protein [9] = substrate: O=CCCNC(=O)CC(=O)O; assay type: biochemical, Lathyrus oleraceus; conditions: 2.5 mM NAD+, 0.1 M sodium pyrophosphate, pH 8.1
purified protein [10] = substrate: N[C@@H](Cc1ccccc1)C(=O)NCCC=O; assay type: biochemical, Lathyrus oleraceus; conditions: 2.5 mM NAD+, 0.1 M sodium pyrophosphate, pH 8.1
purified protein [11] = substrate: O=CCCCNC(=O)CC(=O)O; assay type: biochemical, Lathyrus oleraceus; conditions: 2.5 mM NAD+, 0.1 M sodium pyrophosphate, pH 8.1
purified protein [12] = substrate: N[C@@H](CCCC=O)C(=O)O; assay type: biochemical, Lathyrus oleraceus; conditions: 2.5 mM NAD+, 0.1 M sodium pyrophosphate, pH 8.1
purified protein [13] = substrate: N[C@@H](Cc1ccc(O)cc1)C(=O)NCCC=O; assay type: biochemical, Lathyrus oleraceus; conditions: 2.5 mM NAD+, 0.1 M sodium pyrophosphate, pH 8.1
purified protein [14] = substrate: N[C@@H](Cc1ccccc1)C(=O)NCCCC=O; assay type: biochemical, Zea mays; conditions: 2.5 mM NAD+, 0.1 M sodium pyrophosphate, pH 8.1
purified protein [15] = substrate: O=CCCNC(=O)CC(=O)O; assay type: biochemical, Zea mays; conditions: 2.5 mM NAD+, 0.1 M sodium pyrophosphate, pH 8.1
purified protein [16] = substrate: N[C@@H](Cc1ccccc1)C(=O)NCCC=O; assay type: biochemical, Zea mays; conditions: 2.5 mM NAD+, 0.1 M sodium pyrophosphate, pH 8.1
purified protein [17] = substrate: O=CCCCNC(=O)CC(=O)O; assay type: biochemical, Zea mays; conditions: 2.5 mM NAD+, 0.1 M sodium pyrophosphate, pH 8.1
purified protein [18] = substrate: N[C@@H](CCCC=O)C(=O)O; assay type: biochemical, Zea mays; conditions: 2.5 mM NAD+, 0.1 M sodium pyrophosphate, pH 8.1
purified protein [19] = substrate: N[C@@H](Cc1ccc(O)cc1)C(=O)NCCC=O; assay type: biochemical, Zea mays; conditions: 2.5 mM NAD+, 0.1 M sodium pyrophosphate, pH 8.1
[20] = 1 mM NAD+, 0.15 M Tris-HCl, pH 9.0
[21] = 2.5 mM NAD+, 0.1 M sodium pyrophosphate, pH 8.1

B1: PsAMADH (native pea aminoaldehyde dehydrogenase, prevailing isoenzyme 1) (Lathyrus oleraceus) (protein)
chain: MAITVSSRQLFIDGEWRVPILNKRIPNINPSTENIIGDIPAATKEDVDLAVDAAKRAISRKNGRDWSAASGSLRARYLRAIAAKIKEKKDELGKLESIDCGKPLEEALADLDDVVACFEYYAGLAEELDSKQKAPISLPMDTFKSYILKEPIGVVALITPWNYPFLMATWKIAPALAAGCAAILKPSELASVTCLELGEICKEVGLPRGVLNIVTGLGHEAGASLASHPDVDKISFTGSSATGSKIMTTAAQLVKPVSLELGGKSPIVVFEDVDLDKVAEWTVFGCFFTNGQICSATSRLIVHESIAVEFVDKLVKWAENIKISDPLEEGCRLGPIVSEAQYKKVLNCISSAKSEGATILTGGRRPEHLKKGYFVEPTIITDVTTSMQIWREEVFGPVLAVKTFSTEEEAINLANDTHYGLGSAVMSNDLERCERLSKALQAGIVWINCAQPSFIQAPWGGIKRSGFGRELGEWGLENYLSVKQVTRYTSDEPWGWYQPPSKL
notes: native, purified from 7-day-old etiolated pea seedlings
Km (purified protein [1]; [20]): 101 ± 10 µM | kcat (purified protein [1]; [20]): 0.17 s⁻¹ | kcat/Km (purified protein [1]; [20]): 1700 M⁻¹ s⁻¹ | Km (purified protein [2]): 138 ± 6 µM | kcat (purified protein [2]): 1.61 ± 0.07 s⁻¹ | kcat/Km (purified protein [2]): 11700 M⁻¹ s⁻¹ | Km (purified protein [3]): 174 ± 42 µM | kcat (purified protein [3]): 0.22 ± 0.04 s⁻¹ | kcat/Km (purified protein [3]): 1300 M⁻¹ s⁻¹ | Km (purified protein [4]): 513 ± 36 µM | kcat (purified protein [4]): 4.13 ± 0.2 s⁻¹ | kcat/Km (purified protein [4]): 8100 M⁻¹ s⁻¹ | Km (purified protein [5]): 136 ± 11 µM | kcat (purified protein [5]): 3.36 ± 0.2 s⁻¹ | kcat/Km (purified protein [5]): 24700 M⁻¹ s⁻¹ | Km (purified protein [6]): 103 ± 17 µM | kcat (purified protein [6]): 1.34 ± 0.07 s⁻¹ | kcat/Km (purified protein [6]): 13000 M⁻¹ s⁻¹ | Km (purified protein [7]): 427 ± 33 µM | kcat (purified protein [7]): 1.49 ± 0.11 s⁻¹ | kcat/Km (purified protein [7]): 3500 M⁻¹ s⁻¹ | Km (purified protein [8]): 506 ± 92 µM | kcat (purified protein [8]): 1.29 ± 0.14 s⁻¹ | kcat/Km (purified protein [8]): 2500 M⁻¹ s⁻¹

B2: PsALDH7 (Lathyrus oleraceus) (protein)
chain: GSDSNNLGFLKEIGLGATNIGSFINGQWKANGPTVHSVNPSTNQVIASVTEATLDDYEEGLRASSEAAKTWRTVPAPKRGEIVRQIGDALRAKLDPLGRLVALEMGKILAEGIGEVQEIIDMCDYSVGLSRQLNGSIIPSERPEHMMFEVWNPLGIVGVITAFNFPCAVLGWNACIALVGGNTVVWKGAPTTPLITVAVTKLIAEVFERNNLPGAIFTALCGGADIGHAIAKDTRIPLVSFTGSSKVGALVQQTVSQRFGKTLLELSGNNAIIVMDDADITLAVRSIFFAAVGTAGQRCTTCRRLYLHESVYANVLEQLTALYKQVKIGNPLEEGTLVGPLHTRSAVENFKNGISAIKSQGGKIVTGGSVLESEGNFVVPTIVEISADAAVVKEELFAPVLYVMKFKDLEEAIALNNSVPQGLSSSIFTQKPSTIFKWIGPSGSDCGIVNVNIPTNGAEIGGAFGGEKATGGGREAGSDSWKQYMRRSTCTINYGSELPLAQGINFG
notes: recombinant
Km (purified protein [1]; [21]): 656 ± 55 µM | kcat (purified protein [1]; [21]): 0.04 s⁻¹ | kcat/Km (purified protein [1]; [21]): 61 M⁻¹ s⁻¹ | Km (purified protein [9]): 2522 ± 203 µM | kcat (purified protein [9]): 0.19 ± 0.01 s⁻¹ | kcat/Km (purified protein [9]): 75 M⁻¹ s⁻¹ | Km (purified protein [10]): 74 ± 7 µM | kcat (purified protein [10]): 0.07 s⁻¹ | kcat/Km (purified protein [10]): 950 M⁻¹ s⁻¹ | Km (purified protein [11]): 703 ± 72 µM | kcat (purified protein [11]): 0.13 ± 0.01 s⁻¹ | kcat/Km (purified protein [11]): 180 M⁻¹ s⁻¹ | Km (purified protein [12]): 172 ± 32 µM | kcat (purified protein [12]): 0.77 ± 0.09 s⁻¹ | kcat/Km (purified protein [12]): 4500 M⁻¹ s⁻¹ | Km (purified protein [13]): 252 ± 45 µM | kcat (purified protein [13]): 0.09 ± 0.01 s⁻¹ | kcat/Km (purified protein [13]): 360 M⁻¹ s⁻¹

B3: ZmALDH7 (Zea mays) (protein)
chain: MGAFAKEEHQFLAELGLAQRNPGAFACGAWGGSGPTVTSTSPTNNQVIAEVVEASVHDYEEGMRACFDAAKTWMAIPAPKRGEIVRQIGDALRAKLHHLGRLVSLEMGKILPEGIGEVQEIIDMCDYAVGLSRQLNGSIIPSERPNHMMMEVWNPLGVVGVITAFNFPCAVLGWNACIALVCGNCVVWKGAPTTPLITIAMTKIVASVLEKNNLPGAIFTSFCGGTEIGQAIALDIRIPLVSFTGSTRAGLMVQQQVSARFGKCLLELSGNNAIIVMDDADIQLAVRSVLFAAVGTAGQRCTTCRRLILHENIYQTFLDQLVEVYKQVRIGDPLEKGTLLGPLHTPASKENFLKGIQTIKSQGGKILFGGSAIESEGNFVQPTIVEITPSAPVVKEELFGPVLYVMKFQSLKEAIEINNSVPQGLSSSIFTKRPDIIFKWLGPHGSDCGIVNVNIPTNGAEIGGAFGGEKATGGGREAGSDSWKQYMRRATCTINYGSELPLAQGINFG
notes: recombinant
Km (purified protein [14]): 457 ± 55 µM | kcat (purified protein [14]): 0.02 s⁻¹ | kcat/Km (purified protein [14]): 44 M⁻¹ s⁻¹ | Km (purified protein [15]): 1997 ± 142 µM | kcat (purified protein [15]): 0.15 ± 0.01 s⁻¹ | kcat/Km (purified protein [15]): 75 M⁻¹ s⁻¹ | Km (purified protein [16]): 66 ± 12 µM | kcat (purified protein [16]): 0.06 ± 0.01 s⁻¹ | kcat/Km (purified protein [16]): 910 M⁻¹ s⁻¹ | Km (purified protein [17]): 1493 ± 225 µM | kcat (purified protein [17]): 0.18 ± 0.01 s⁻¹ | kcat/Km (purified protein [17]): 120 M⁻¹ s⁻¹ | Km (purified protein [18]): 191 ± 14 µM | kcat (purified protein [18]): 0.77 ± 0.04 s⁻¹ | kcat/Km (purified protein [18]): 4000 M⁻¹ s⁻¹ | Km (purified protein [19]): 216 ± 56 µM | kcat (purified protein [19]): 0.06 ± 0.01 s⁻¹ | kcat/Km (purified protein [19]): 280 M⁻¹ s⁻¹
